These results are taken from article PMC3237451, “Missense Mutation in the Second RNA Binding Domain Reveals a Role for Prkra (PACT/RAX) during Skull Development”.

The series addresses T1, His-RAX (S130P) (Mus musculus (cDNA from L929 cells), UniProt Q9WTX2 1-313, S130P).
T1 sequence: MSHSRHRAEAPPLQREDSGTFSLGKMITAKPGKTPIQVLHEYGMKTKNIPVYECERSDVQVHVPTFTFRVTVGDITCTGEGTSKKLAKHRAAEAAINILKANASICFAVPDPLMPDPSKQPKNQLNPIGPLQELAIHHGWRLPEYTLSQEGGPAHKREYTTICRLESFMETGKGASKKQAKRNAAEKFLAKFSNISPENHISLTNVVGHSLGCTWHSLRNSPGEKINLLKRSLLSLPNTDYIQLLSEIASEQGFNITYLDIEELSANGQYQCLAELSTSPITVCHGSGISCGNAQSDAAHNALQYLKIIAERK
Nature of the series: EMSA; 20 mM Tris pH 7.5, 50 mM KCl, 2 mM MgCl2, 2 mM MnCl2, 5% glycerol; EMSA 15 min at room temperature, 5% acrylamide gel in 0.25x TBE run cold. To be noted: protein: recombinant; blunt. (In general: A gel shift assay detects complexes by their altered migration in electrophoresis.)

B1: 30-bp dsRNA probe (dsRNA)
RNA 1: GGGAACAAAAGCUGGGUACCGGGCCCCCCC
RNA 2: GGGGGGGCCCGGUACCCAGCUUUUGUUCCC
For the molecule B1, the binding result is on record as “no binding”.
